Results from the Human Domainome abundance scans (Beltran et al. 2025).
± gives the uncertainty stated by the source.

Experiment: abundance fitness (aPCA) (normalised: wild type 0, dead -1); higher = more abundant; growth selection in yeast, the domain comes from the species named
Conditions: Homo sapiens

Substance	abundance fitness
Homeobox expressed in ES cells 1 A114T, Q9UBX0	0.493 ± 0.057
Homeobox expressed in ES cells 1 C131H, Q9UBX0	0.419 ± 0.15
Homeobox expressed in ES cells 1 D136F, Q9UBX0	0.211 ± 0.24
Homeobox expressed in ES cells 1 D140E, Q9UBX0	-0.047 ± 0.07
Homeobox expressed in ES cells 1 D150A, Q9UBX0	0.089 ± 0.12
Homeobox expressed in ES cells 1 G134D, Q9UBX0	-0.02 ± 0.17
Homeobox expressed in ES cells 1 I120L, Q9UBX0	-0.192 ± 0.15
Homeobox expressed in ES cells 1 I135V, Q9UBX0	-0.069 ± 0.073
Homeobox expressed in ES cells 1 I152V, Q9UBX0	-0.315 ± 0.12
Homeobox expressed in ES cells 1 I154V, Q9UBX0	-0.028 ± 0.12
Homeobox expressed in ES cells 1 K164W, Q9UBX0	-0.547 ± 0.16
Homeobox expressed in ES cells 1 N118Q, Q9UBX0	-0.35 ± 0.35
Homeobox expressed in ES cells 1 N125A, Q9UBX0	-0.36 ± 0.12
Homeobox expressed in ES cells 1 N130T, Q9UBX0	-0.144 ± 0.066
Homeobox expressed in ES cells 1 P111N, Q9UBX0	0.704 ± 0.15
Homeobox expressed in ES cells 1 Q117L, Q9UBX0	-0.548 ± 0.16
Homeobox expressed in ES cells 1 Q143M, Q9UBX0	-0.011 ± 0.19
Homeobox expressed in ES cells 1 R128A, Q9UBX0	-0.277 ± 0.16
Homeobox expressed in ES cells 1 V122E, Q9UBX0	0.12 ± 0.15
Homeobox expressed in ES cells 1 V129Q, Q9UBX0	0.143 ± 0.25
